The source of these data is CN108299557A (HANGZHOU HANSI BIOMEDICAL CO LTD, dated 2018).

One assay deals with T1, PD-1-his抗原 (UniProt Q15116 25-167, limits assumed).
T1 construct: not shown: his tag
Kind of assay: binding ELISA, PD-1-his coated, HRP anti-human IgG.

The target in assay [1] is T2, PD-1-hIgGFc抗原 (UniProt Q15116 25-167, limits assumed).
T2 construct: not shown: human IgG Fc
Kind of assay: competition ELISA, PD-1-hIgGFc coated, competitor PDL2-his tag 1.0 ug/ml, HRP anti-his tag. (ELISA stands for enzyme-linked immunosorbent assay.)

In assay [2] the target is T2, PD-1-hIgGFc抗原. Kind of assay: competition ELISA, PD-1-hIgGFc coated, competitor PDL1-mIgG2aFc 0.6 ug/ml, HRP anti-mouse IgG.

T2 sequence (Q15116 25-167 limits assumed): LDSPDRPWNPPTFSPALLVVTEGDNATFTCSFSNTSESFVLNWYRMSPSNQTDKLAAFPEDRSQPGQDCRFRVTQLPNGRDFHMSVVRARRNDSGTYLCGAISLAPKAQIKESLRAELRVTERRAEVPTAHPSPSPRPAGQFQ
T1 sequence (Q15116 25-167 limits assumed): as above

B1: 人源化抗体H8L2 (抗PD-1的IgG类抗体变体) (antibody)
heavy: EVQLVQSGGGLVQPGGSLKLSCAASGFTFSSYGMSWVRQAPGKGLDWVATISGGGRDTYYPDSVKGRFTISRDNSKNNLYLQMNSLRAEDTALYYCARQKGEAWFAYWGQGTLVTVSSASTKGPSVFPLAPCSRSTSESTAALGCLVKDYFPEPVTVSWNSGALTSGVHTFPAVLQSSGLYSLSSVVTVPSSSLGTKTYTCNVDHKPSNTKVDKRVESKYGPPCPPCPAPEFLGGPSVFLFPPKPKDTLMITRTPEVTCVVVDVSQEDPEVQFNWYVDGVEVHNAKTKPREEQFNSTYRVVSVLTPLHQDWLNGKEYKCKVSNKGLPSSIEKTISKAKGQPREPQVYTLPPSQEEMTKNQVSLTCLVKGFYPSDIAVEWESNGQPENNYKTTPPVLDSDGSFFLYSRLTVDKSRWQEGNVFSCSVMHEALHAHYTQKSLSLSLGK
light: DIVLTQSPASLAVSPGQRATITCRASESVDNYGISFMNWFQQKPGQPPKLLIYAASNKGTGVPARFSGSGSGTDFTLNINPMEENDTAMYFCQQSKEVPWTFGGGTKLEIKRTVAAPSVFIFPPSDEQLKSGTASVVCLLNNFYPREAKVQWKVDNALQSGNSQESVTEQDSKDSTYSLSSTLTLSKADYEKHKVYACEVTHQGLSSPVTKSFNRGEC
notes: ACC CCC CTG; CAC GCC CAC) confirms; The constant region looks like IgG4; also called 18A10 H8L2; H8L2突变体
As a reminder, the EC50 is the concentration needed to bring the measured effect to its halfway point. As for B1, the concentration for a half-maximal effect (EC50) in the assay with PD-1-his抗原 was 0.04 nM; with PD-1-hIgGFc抗原 [1], 1.83 nM; with PD-1-hIgGFc抗原 [2], 0.474 nM.
